Residue numbers refer to the chain shown, from its start.
T1: human CD84 on the cell surface (human, UniProt Q9UIB8 22-345)
T1 construct: whole, on cells; also called Cluster of Differentiation 84
T1 sequence (looked up): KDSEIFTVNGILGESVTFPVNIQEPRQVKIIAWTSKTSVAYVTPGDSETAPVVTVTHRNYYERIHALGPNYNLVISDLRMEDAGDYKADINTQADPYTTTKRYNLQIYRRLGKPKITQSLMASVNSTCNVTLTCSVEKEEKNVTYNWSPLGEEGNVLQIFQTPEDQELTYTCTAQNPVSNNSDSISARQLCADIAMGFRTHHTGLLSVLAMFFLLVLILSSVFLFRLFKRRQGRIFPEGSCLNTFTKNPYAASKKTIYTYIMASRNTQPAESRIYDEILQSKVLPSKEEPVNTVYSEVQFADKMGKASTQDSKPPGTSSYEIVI

B1: anti-CD84 hybridoma clone 4B11 (antibody, V domains shown)
VH: EVKLVESGGGLVQPGGSLRLSCATSGFTFSDFYMDWVRQPPGKRLEWIATSRNKANDYTTEYSASVRGRFIVSRDTSQSILYLQMNALRAEDTAIYYCARDAVWEPFAYWGQGTLVTVSA
VL: EIVLTQSPTTMAASPGEKITVTCSANSSISSNSLHWYQQKPGFSPKLLIYRTSNLASGVPARFSGSGSGTSYFLTIGTMEAEDVATYYCQQGTSIPRTFGGGTKLEIK
B2: anti-CD84 hybridoma clone 2H7 (antibody, V domains shown)
VH: DVQLQESGPGLVKPSQSLSLTCTVTGYSITSDYAWNWIRQFPGNKLEWMGYISYSGTTSYNPSLKSRISITRDTSKNQFFLQLNSVTTEDTATYYCASLHYYGSRYKKLYAMDYWGQGTLATVSS
VL: NIVMTQSPKSMSMSVGERVTLSCKASDNVGTYVSWYQQKPEQSPKLLIYGASNRYTGVPDRFTGSGSATDFTLTISSVQAEDLADYHCGQSYSYPTFGGGTKLEIK
B3: anti-CD84 hybridoma clone 8A5 (antibody, V domains shown)
VH: QIQLVQSGPELKKPGETVKISCKASGYTFTTYSMHWVKQAPGKGLKWMGWIDTATGEPTYADDFKGRFAFSLETSASTAYLQINNLNNDDTATYFCVKSAYWYFDVWGAGTTVTVSS
VL: DVLMTQTPLSLPVSLGDQASISCRSSQSIVHINGNTYLEWYLQKPGQSPKLLIYKVSNRFSGVPDRFSGSGSGTDFTLKISRVEAEDLGVYYCFQGSHVPWTFGGGTKLEIK
B4: anti-CD84 hybridoma clone 13D11 (antibody, V domains shown)
VH: QVTLKESGPGLLQPSQTLSLTCSFSGFSLNTSNMGVGWIRQPSGKDLEWLAHIWWDDVKRYNPALKSRLTISKDTSNNQVFLKIASVDTADTATYYCARMRGDYTMDYWGQGTSVTVSS
VL: DIVLTQSPASLAVSLGQRATLSCRASQSVSTSLYSYMHWYQQKPGQPPKLLIKYASDLESGVPARFSGSGSGTDFTLHIHPVEEEDTATYYCQHSWEIPYTFGGGTKLEIK
B5: anti-CD84 hybridoma clone 5C6 (antibody, V domains shown)
VH: QVHLQQSGAELVRPGTSVKISCKASGYTFTNYWLGWVKQRPGHGLEWIGDIFPGGGYINYHEKFKGKATLTADTSSSTAYMQLSSLTSEDSAVYFCGYGNIAMDYWGQGTSVTVSS
VL: QIILTQTPAIMSASPGEKVTMTCSASSSVSYVHWYQQKSGTSPKRWIYDTSKLASGVPARFSGSGSGTSYSLTISTMEAEDAATYYCQQWNNSPRTFGGGTKLEIK
B6: anti-CD84 hybridoma clone 7D2 (antibody, V domains shown)
VH: B5 VH with G97A, I101V
VL: B5 VL with M21V

The molecules below were run against T1, human CD84 on the cell surface (assay: flow cytometry, control on NS0 cells expressing human CD84).
Ctrl gave a Geometric Mean of 88.

What follows are molecules tested against T1, human CD84 on the cell surface (assay: flow cytometry, hybridoma supernatant on NS0 cells expressing human CD84).
Experimental: Hybridoma clones selected from ELISA screening were subjected to flow cytometric analyses with NSO, a mouse myeloma cell line (ECACC), expressing human CD84 via lentiviral transduction. Half a million of transduced cells were incubated with 100 mL of hybridoma culture supernatants on ice for 30 min and washed with cold PBS containing 1% fetal bovine serum and 0.1% sodium azide.
For B1, the “Geometric Mean” value was 1100.
With B2 the “Geometric Mean” value was 1550.
With B3 the “Geometric Mean” value was 1810.
B4 was tested, and the “Geometric Mean” value was 2120.
In the case of B5, the “Geometric Mean” value is reported as 1690.
In the case of B6, the “Geometric Mean” value is reported as 2260.

Reference: US20250353924A1 (CITY OF HOPE, published 2025)
